In publication PMC2734165, “The Immune System Strikes Back: Cellular Immune Responses against Indoleamine 2,3-dioxygenase” (PLoS ONE, 2009):

B1: IFN-γ: IFN-γ, 100 U/ml for 2 days (protein, UniProt P01579 24-161, looked up)
Interferon gamma: QDPYVKEAENLKKYFNAGHSDVADNGTLFLGILKNWKEESDRKIMQSQIVSFYFKLFKNFKDDQSIQKSVETIKEDMNVKFFNSNKKKRDDFEKLTNYSVTDLNVQRKAIHELIQVMAELSPAAKTGKRKRSQMLFRG

Legend:
[1] = system: established murine cancers; settings: ref [17]; cited from earlier work
Description: The state of lymphopenia following high-dose chemotherapy appears to provide a window of enhanced responsiveness to immunotherapy. Additionally, certain chemotherapeutic drugs may assist in breaking immune tolerance by preferentially inhibition of Tregs, [47]. Nonetheless, chemotherapy alone is never sufficient to break tolerance to tumors probably because the original tolerogenic mechanisms rapidly restore tolerance following each cycle of chemotherapy. In principle, therefore, chemotherapy might provide an environment in which IDO-based immunotherapy could have a synergistic ...

[2] = system: breast cancer cell line CAMA-1; assay: 51Cr-release assay, CAMA-1; format: cell-based; settings: IFN-γ 100 U/ml for 2 days
Protocol: (§1) Conventional ^51Cr-release assays for CTL-mediated cytotoxicity was carried out as described elsewhere. Target cells were T2-cells, in vitro generated autologous immature DC (iDC) and matured DC (mDC), in vitro generated allogeneic HLA-A2^+ iDC and mDC, autologous ex vivo isolated monocytes, T cells and B cells (isolated using CD14^+, CD3^+ or CD19^+ microbeads (MACS)), the natural killer target cell line K562, ex vivo enriched HLA-A2^+ AML-blasts (B and T cells were depleted from the bone marrow of AML patients using CD19^+ and CD3^+ microbeads (MACS)), the breast cancer cell lines CAMA-1 and MDA-MB-231, as well as the colon cancer cell lines HCT-116 and SW480 (all available at the American Type Culture Collection (ATCC)), and FM55M [27]. Lysis were blocked using the HLA specific mAb W6/32 (2 µg/100 µl). In some assays, target cells were treated with 100 U/ml IFN-γ for 2 days.
(§2) Figure 5 Functional capacity of IDO5-specific T cells to kill cancer cell lines treated with IFN-γ for up-regulation of IDO, or treated with IDO ShRNA for down-regulation of IDO. […] Intracellular IDO expression was given by a one-tailed two sampled t-test comparing MFIIDO (dark histograms) and MFIIsotype control (light histograms), where MFI is the Mean Fluorescence Intensity. […]

[3] = system: breast cancer cell line MDA-MB-231; assay: 51Cr-release assay, MDA-MB-231; format: cell-based; settings: IFN-γ 100 U/ml for 2 days
Protocol: as §1, §2

[4] = system: IDO in CAMA-1 and MDA-MB-231; assay: Intracellular IDO staining, breast cancer cell lines; format: cell-based
Protocol: PBMC, DC, and cancer cells were examined for intracellular IDO expression using flow cytometry. After fixation and permeabilization (Cytofix/Cytoperm, BD), cells were stained with anti-IDO antibody (Millipore Corporation). For comparison, cells were stained with an isotype matched control (Millipore Corporation). After incubation, cells were washed twice with Perm/Washbuffer (BD) before staining with a FITC-labeled secondary antibody (DAKO). The samples were analyzed on BD FACS Aria, using DIVA software (BD Biosciences). Assuming normality, intracellular IDO expression was given by a one-tailed two sampled t-test comparing MFIIDO and MFIIsotype control, where MFI is the Mean Fluorescence Intensity. […]
(§3) Statistical analysis was performed on data on intracellular IDO staining. Assuming normality, intracellular IDO expression was given by a one-tailed two sampled t-test comparing MFIIDO and MFIIsotype control, where MFI is the Mean Fluorescence Intensity. […] HLA-A2 expression was determined using the same approach.
as §2

[5] = system: HLA-A2 on CAMA-1 and MDA-MB-231; assay: HLA-A2 surface staining, breast cancer cell lines; format: cell-based
Protocol: Cancer cells were examined for HLA-A2 expression using flow cytometry. Cells were stained with a fluorochrome-coupled HLA-A2 mAb (BD Bioscience). For comparison, cells were stained with an isotype matched control. The samples were analyzed on BD FACS Aria, using DIVA software (BD Biosciences). Assuming normality, HLA-A2 expression was given by a one-tailed two sampled t-test comparing MFIHLA-A2 and MFIIsotype control, where MFI is the Mean Fluorescence Intensity. For p-values <0.05 (significance level) cells were defined HLA-A2^+. The fold of expression was defined as MFIHLA-A2/MFIIsotype control.
as §3, with “Intensity. For p-values <0.05 (significance level) cells were defined IDO^+.” for “Intensity.”
as §2

[6] = system: autologous CD14^+ monocytes, CD3^+ T cells and CD19^+ B cells; assay: 51Cr-release assay, autologous monocytes, T cells and B cells; format: cell-based; settings: CD19^+ B cells after IFN-γ treatment
Description: Target cells were T2-cells, in vitro generated autologous immature DC (iDC) and matured DC (mDC), in vitro generated allogeneic HLA-A2^+ iDC and mDC, autologous ex vivo isolated monocytes, T cells and B cells (isolated using CD14^+, CD3^+ or CD19^+ microbeads (MACS)), the natural killer target cell line K562, ex vivo enriched HLA-A2^+ AML-blasts (B and T cells were depleted from the bone marrow of AML patients using CD19^+ and CD3^+ microbeads (MACS)), the breast cancer cell lines CAMA-1 and MDA-MB-231, as well as the colon cancer cell lines HCT-116 and SW480 (all available at the American Type Culture Collection (ATCC)), and FM55M [27]. Lysis were blocked using the HLA specific mAb W6/32 (2 µg/100 µl) [28]. In some assays, target cells were treated with 100 U/ml IFN-γ for 2 days.
Next, we tested the ability of RBS35 to lyse autologous monoctyes, T cells and B cells. For this purpose, we isolated CD14^+ monocytes, CD3^+ T cells and CD19^+ B cells directly ex vivo from IDO^+ PBMC. The isolated cells were subsequently used as target cells in a ^51Cr-release assay.
All assays were performed in different E∶T ratios. […] ( c ), Lysis of autologous CD14^+ monocytes, CD3^+ T cells and CD19^+ B cells isolated directly ex vivo from IDO^+ PBMC, and lysis of autologous CD14^+ monocytes, CD3^+ T cells and CD19^+ B cells after IFN-γ treatment. […]

[7] = CAMA-1 and MDA-MB-231, IFN-γ 100 U/ml for 2 days

Molecule | Synergy with chemotherapy drugs [1] | Effect on killing of CAMA-1 by RBS35 [2] | Effect on killing of MDA-MB-231 by RBS35 [3] | Fold of IDO expression, MFIIDO/MFIIsotype control ([4]; CAMA-1 + IFN-γ treatment, p = 0.004, before treatment 2.3 (p = 0.020), representative of 3 experiments) | IDO expression after treatment [4, 7] | Fold of HLA-A2 expression (printed as MFIIDO/MFIHLA-A2) ([5]; CAMA-1 + IFN-γ treatment, p = 0.002, before treatment 43.7 (p = 0.004), representative of 3 experiments) | HLA-A2 expression after treatment [5, 7] | Effect of IFN-γ on killing of autologous immune cells by RBS35 [6]
Cn1cc(C[C@H](N)C(=O)O)c2ccccc21 [1-Methyl-Tryptophan] | work synergistically with different chemotherapy drugs in established murine cancers |  |  |  |  |  |  | 
B1 |  | increased the killing by RBS35 of CAMA-1 | introduced killing of the MDA-MB-231 cells | 3.5 | increased the expression of IDO and HLA-A2 in both cell lines | 141.2 | increased the expression of IDO and HLA-A2 in both cell lines | introduced killing of the CD14^+ monocytes, but not of the T and B cells
